This note sets out measurements from the nanobody polyreactivity screen of Harvey et al. (2022).

The data set can be described thus: yeast display, Sf9 membrane polyspecificity reagent, FACS + sequencing; frameworks hold sequencing errors. A digest of the protocol: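 After 36–48 hours of galactose induction, yeast (Saccharomyces cerevisiae BJ5465) displaying a synthetic nanobody library were stained at 4 °C for 1 hour with 10% biotinylated, detergent-solubilized Sf9 membrane reagent. Streptavidin microbeads enriched the stained cells before FACS sorting into low and high (top ~1%) gates on anti-HA and streptavidin fluorescence. Each clone's polyreactivity label reflects its gate of origin.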
As to “QVQLVSSGGGLVQAGGSLSLSCAASGRTFCINAMGWYRQAPGKERELVAAIRTGGSTYYADSVKGRFTISRDNAKNTVYLQMNSLKPEDTAVYYCAAVLYHNRKTEYTYGYWGQGTQVTVSS”, the “polyreactivity (PSR sort gate)” value was “high polyreactivity”. In the case of “QVQLVVSGGGLVQAAGSLRLSCAASGLTFANYVMGWYRQAPGKERELVASISISGGSTYYADSEKGRFTISRDNAKNTVYLQMNSLKPEDTAVYYCAASFVSSYQYAYWGQVTQVTVSS”, the “polyreactivity (PSR sort gate)” value is recorded as “high polyreactivity”. “QVQLVVSGGGLVQAGGSLRLSCAASGSTFYAYAMGWYRQAPGKERELVARIRWRGGRTYYADSVKGRFTISRDNAKNTVYLRMNSLKPEDTAVYYCNRGYYSYYGRYYYWGQGTQVTLSS”: the “polyreactivity (PSR sort gate)” value is “high polyreactivity”. Next, “QVQLVVSGGGLVQAGGSLRLSCAASGYTFQGYAMGWYRQAPGKERELVAGISRSGGRTYYADSVKGRFTISRDNAKNTVYLQMNSLKPEDTAVYYCASTYPGAIRDYWGQGTQVTVSS”: “high polyreactivity”; “QVQLVVSGGGLVQAGGSLRLSWAASGSIFERYAMGLYRQAPGKERELVARISRSGTSTYYADSVKGRFTISRDNAKNSVYDQMNSLQPEDTAVYYCNATGSRYSGYQRCHYWRYDYLGQGTQVTVSS”: “high polyreactivity”; “QVQLVVSGGGLVQAGGTLRLSCAASGSILSDNGMGWYRQAPGKERELVASIRTGDITKYADCVKGRFTISRDNAKNTVDLQMTSLKPEDTAVYYCAAAGRVQYTRKYYGWRNRNDYWGQGTQVTVSS”: “low polyreactivity”.

For “QVQMQESGGGLVQAGGSLRLSCAASCTISQEDWMGWYRQAPGKEREFVAAIGLGSNTNYADSLKGRFTISRDNAKNTVYLQMNSLKPEDTAVYYCAVSVWQYSDHVFRGQGTQVTVSS”, the “polyreactivity (PSR sort gate)” value is on record as “low polyreactivity”.

Consider “QVQMQESGGGLVQAGGSLRLSCAASGSISRYYDMGWYRQAPGKEREFVAGISGGAITYYADSVKGRFTISRDNAKNSVYLQMNSLNREDTAVYYCAADTGVYQYHSYWGQGTQVTVSS”, for which the “polyreactivity (PSR sort gate)” value is recorded as “low polyreactivity”. Take “QVQPQESGGGPVQACGSLRLSCAASGNILDADILGWYRLVPGIERELVASITDGGSTNYAESVKGRFTIRRDNAKNTVYLQMNSLIPEDTAVYYCAVWSLGRWRHYYWGQGTQVTVSS”: the “polyreactivity (PSR sort gate)” value was “low polyreactivity”. Regarding “QVQQQESGGGLVQAGGSLRLSCAASGSISRLDYMGWYRQATGKERELVAAIDNGSTTYYADSVKGRLTISRDNAKYTVYLQMNSLKPEDNAVYFCAAVRGRGGTHAYWGQGTQVTVSG”, the “polyreactivity (PSR sort gate)” value is “low polyreactivity”. Next, “QVQQQESGGGLVQAGGSLRLSCAASGYISVVIGMGWYRQSPGKERELVASIAYGAITYYTDSVKGRFTISRDYAKNTEYLQMNSLKAEDTAVYYCAADQPPLAYHWYWGQGTQATVSS”: “high polyreactivity”.

In the case of “QVQQQESGGVLVHAGGSLRLSCAASGTISPLPAMGWYRQAPGKEREFVAGIDTGAISNYADSVKGRFTISRDNAKNTVYLQMNSLKPEDTAVYYCAVFPAAYEYYVRYYTYWGQGTQVTVSS”, the “polyreactivity (PSR sort gate)” value is listed as “low polyreactivity”.

For the sequence “QVQQQESRGGLVQAGGSLRLSCAASCTISQEDWMGWYRQAPGKEREFVAAIGLGSNTNYADSLKGRFTISRDNAKNTVYLQMNSLKPEDTAVYYCAVSVWQYSDHVYRGQGTQVTVSS”, the “polyreactivity (PSR sort gate)” value is on record as “low polyreactivity”. Consider “QVQREESGGGLVQAGGSLRLSCAASGSTFDAYAMGWYRQAPGKERELVAAITWSGGSTYYADSVKGRFTISRDNAKNTVYLQMNSLKPEATAVYYCAADKLGELDYWGQGTQVTVSS”, for which the “polyreactivity (PSR sort gate)” value is listed as “low polyreactivity”.

Take “QVQRLESGGGLVKAGGSLRLSCSASGIILPYYVMGWYRQAPGKEREFVADITWSGGSTYYADSVKGRFTISRDNAKNTVYLQMNSLKPEDTAVYYCAAEGPWYYFFDMDYWGQGTQVTVSS”: the “polyreactivity (PSR sort gate)” value is on record as “high polyreactivity”. Turning to “QVQRLESVGRLVQAGGSLRLSSAPSGIIFRGYVMGWYIQARGKESELVAAITSSTGSTYYADSVKGRFTISRENAKNTGYLLMNILKPEDTAVYYCNVDYYVPNDGYEYWGQGTQVTVSS”, the “polyreactivity (PSR sort gate)” value was “low polyreactivity”.

With “QVQRVEEGRGLVQAGGTLRISCAASGSIFNQYAMGWYRHAPGQERELVAAITASGGSTYYAVSVKGRFTISRDNAKKTVYLQMNCLKPEDPAVYYCAKVELRDSAELGSDEYDYWGQGTQVTVSS”, the “polyreactivity (PSR sort gate)” value is “low polyreactivity”. In the case of “QVQRVESAGGLVQAGGSLRISCAASGSTLYKYAMGWYRQAPGKERELVAAISWSGSSTYYADSVKGRFTISRDNAKNTVYLQMNSLKPVDTAVYYCAAYPRPYIVYTDGYVWYEFDYWGQGTQVTVSS”, the “polyreactivity (PSR sort gate)” value is listed as “low polyreactivity”. In the case of “QVQRVESCGGLVQAGGSLRLSCAASGSIFTQYTMGWYRQEPAKERELVAAISRSGGRTYYADSVKGRFTISRDNAKNTVYLQMNSLKPEDTAVYYCATRALYWRYGYDYWGQGTQVTVSS”, the “polyreactivity (PSR sort gate)” value was “high polyreactivity”. Take “QVQRVESGGALVQAGGSHRLSCAASGSIFYAYAMGWYRLAPGKERELVAAIRSSDSRTYYADSVKGRFTISRDNAKKTVYLQMNCLKPEETAVYYCAAEGSRNVKFDYCGQGTQVTVSS”: the “polyreactivity (PSR sort gate)” value was “high polyreactivity”. Consider “QVQRVESGGGIVQAGGSHRLSCAASGSIFRYYAMGWYRQAPGKEREFVAAISSSGGSTYYADSVKGRFTISRDNAKNTVYLQMNSLKPEDTAVYYCARDWPSYYARQYDYWGQGTQVTVSS”, for which the “polyreactivity (PSR sort gate)” value is recorded as “high polyreactivity”.

With “QVQRVESGGGIVQAGGSLRLSCAASGSTFSYYAMGWYRQAPGKERELVAAISSSGGNTYYADSVKGRFTISRDNAKNTVYLQMNSLKPEDTAVYYCAKLYRYIYGGMDYWGQGTQVTVSS”, the “polyreactivity (PSR sort gate)” value is reported as “high polyreactivity”.

Consider “QVQRVESGGGIVQARGSLRLSCAASGRIFKTNAMRCYRQSRGKERELVAAISSSGGSTYYADSVKGRFTISRDNAKNTVDLQRNSLNPEDTAVYYCAADGRTKGYDSLGQGTQVTVSS”, for which the “polyreactivity (PSR sort gate)” value was “high polyreactivity”. Regarding “QVQRVESGGGLVQAGGSLRLRCAASGRIFQGNAMGWYRQAPGKERELVAAITWRGGTTYYADSVKGRFTISRDNAKNTVYLQMNSLKPEDTAVYYCNADWWRTLESDYWGQGTQVTVSS”, the “polyreactivity (PSR sort gate)” value is reported as “low polyreactivity”. For the sequence “QVQRVESGGGLVQAGGSLRLSCAASGFIFDDKAMGWYRQAPGKERELVAAITSGGGSTYYADSVKGRFTISRDNAKNTVYLQMNSLKPEDTAVYYCNAVPSQHDEFDYWGQGTQVTVSS”, the “polyreactivity (PSR sort gate)” value is “low polyreactivity”.

For the sequence “QVQRVESGGGLVQAGGSLRLSCAASGGIFAVNVMGWYRPAPGKERELVAAITSTGSTYYADSVKGRFTISRDNAKNTVYLQMNSLKPEDTAVYYCAADYVYYDSYDDTVFGYEYWGQGTQVTVSS”, the “polyreactivity (PSR sort gate)” value is reported as “high polyreactivity”. Turning to “QVQRVESGGGLVQAGGSLRLSCAASGGIFFYNAMGWYRQAPGIERELVATIRGGGSTNYADSVKGRFTISRDNAKNTVYLQMNSLKPEDTAVYFCAAVDRRGANYNYWGQGTQVTVSS”, the “polyreactivity (PSR sort gate)” value is listed as “high polyreactivity”. Next, “QVQRVESGGGLVQAGGSLRLSCAASGIIFGSYAMGGYRQAPGKERELVAAITSIGTRTYYADSVKGRFTISRDNAKNTVYLQMNSLKPEDTAVYYCNAPRFWSRHGLRDYWGQGTQVTVSS”: “high polyreactivity”; “QVQRVESGGGLVQAGGSLRLSCAASGIIFQSYAMGWYRHAPGKERELVAAISRRGGRTYYADSVKGRFTISRDNAKNTVYLQMNSLKPEDTAVYYCADRYRYAPYDYWGQGTQVTVSS”: “high polyreactivity”; “QVQRVESGGGLVQAGGSLRLSCAASGITFRTNTMGWYRQAPGKERELVAAITWDAGSTYYADSVKGRFTISRDNAKHTVYVQMKSLKPEDTAVYYCAARLSYLYGLYPYYYWGQGTQLTVSS”: “high polyreactivity”. Next, “QVQRVESGGGLVQAGGSLRLSCAASGITFWGYAMGWYRQAPGKDREFVARINWSGGRTYYAESVKGRFRISRDNAKNTVYLQMNSLKPEDTAVYYCNVVLRSVVSGDYWGQGTQVTVSS”: “high polyreactivity”; “QVQRVESGGGLVQAGGSLRLSCAASGLTFDPKDMGWYRQAPGKERELVAAISWSSGSTYYADSVKGRFTISRDNAKNTVYLQMNSLKPEYTAVYYCAAYFTLLFGTELYDYDYWGQGTQVTVSS”: “high polyreactivity”. Next, “QVQRVESGGGLVQAGGSLRLSCAASGNIFGYAMGWYRQAPGKERELVAAISRGGGTYYADSVKGRFTISRDNAKNTVYLQMNSLKPEDTADYYCAARLVKGYSRMNYWGQGTQVTVSS”: “high polyreactivity”; “QVQRVESGGGLVQAGGSLRLSCAASGNIFVYYAMGWYRQAPGKERELVAAISSDVSTYYADSVKGRFTISRDNAKNTVYLQMNSLKPEDTAVYYCATTGYGSYVIYWGQGTQVTVSS”: “low polyreactivity”; “QVQRVESGGGLVQAGGSLRLSCAASGRIFLTNARGWYRQAPGKERELVPAITSGGSTYYADSVKGRFTISRDNAKNTVYLQMNSLKPEDTAVYYCNDDTDRYWPYEYDYWGQGTQVTVSS”: “low polyreactivity”. On to “QVQRVESGGGLVQAGGSLRLSCAASGSIFAVYAMGWYRQAPGNERELVAAINRSGDSTYFADSVKGRFTISRDNAKNTVYLQMKSLKPEDTAVYYCAADWYWWYTRSWVDYWGQGTQVTVSS”, for which the “polyreactivity (PSR sort gate)” value is on record as “high polyreactivity”. Regarding “QVQRVESGGGLVQAGGSLRLSCAASGSLFYLYAMGWYRQAPGKERELVARITIRGGSTYYADSVKGRFTISRDNAKNTVYLQMNSLKPEDTAVYYCAARRPYGDYDYWGQGTQVTVSS”, the “polyreactivity (PSR sort gate)” value is recorded as “high polyreactivity”. “QVQRVESGGGLVQAGGSLRLSCAATGFTFSWYVMGWYRQAPGKERELVATITNRGGSTYYSDSVKGRFTISRDNAKNTVYLQMNSLKPEDPAVYYCAARKKGSRVGFDYWGQGTQVTVSS”: the “polyreactivity (PSR sort gate)” value is “high polyreactivity”. For “QVQRVESGGGLVQAGGSLRLSCADSGFIFRRYAMGWYRQAPGKERELVAAITSSGGTTYYADSVKGRFTISRDNAKNTVYLQMNSLKPEDTAVYYCNAVRGVYARRSDYWGQGTEVTVSS”, the “polyreactivity (PSR sort gate)” value is “high polyreactivity”. As to “QVQRVESGGGLVQAGGSLRLSCDASGFTFAFYAMGWYRQAPGKERELVAAITGSGGSTYYADSVKGRFTISRDNAKNTVYLQMNRLKPEDTAVYYCNTYHQFSYDYWGQGTQVTVSS”, the “polyreactivity (PSR sort gate)” value is reported as “high polyreactivity”. On to “QVQRVESGGGLVQAGGSLRLSSAACGRIFSTYAMGRYRQAPGKERDLVPAIDWDGGGTYYADSVKGRFTISRDNAKNTVYLQMNSLKPEDTAVYYCAAETDLANGTSPSDYWGQGTQVTVSS”, for which the “polyreactivity (PSR sort gate)” value is recorded as “low polyreactivity”.
